# Test system: MS2 coat protein
# Assay: apparent KD of MS2 coat protein; higher = weaker reporter binding
# Settings: Eterna round: R107; input ligand: theophylline 2 mM
# Method in brief: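 Apparent KD is reported per design as the median of normalised binding-curve fits across its clusters. The RNA switches were made by on-chip transcription from Illumina sequencing clusters. SNAP-549-labelled MS2 coat protein was then added in twofold steps (0.7 or 1.5 nM to 3 µM; 0.8–1.5 h to 10–20 min per step) in 100 mM Tris-HCl pH 7.5, 80 mM KCl, 4 mM MgCl2, without or with constant ligand.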
row,Sequence,apparent KD of MS2 coat protein [nM]
1,AGCGGAACGGAAGGGUCCCAAAAUUGUGAUACCAGCCUUGAAUCCGGCCCUUGGCAGCACAUGAGGAUCACCCAUGUACUGCGGU [Celate],123
2,CUAUAGAUAAGAAGGAGCGACAUGAGGAUCACCCAUGUCUACCACGUCGAAAGACGCUCAUGUCAGGUAGGUCGCUUAUUUAUAG [Astros-Eli-mod7],129
3,AGUCUUGAACGAAGGAGCGACGUACAUGAGGAUCACCCAUGUGUAGGAGCGAAAGCUCCACGUCAGGUAGGUCGCGUUCGAGACA [Omei Arginine B SS A v4],12.5
4,AUACAUGAGGAUCACCCAUGUCCUCGUGAUCGAGGACCGGUACGGCCGCCACUCGGUCCUCGCGAGGAGGAGUCAAAGACUCCUA [Omei Trp A SS A v6],240
5,UGAGUUAGACAAAAGUCUAGCUCUGGUGAAGGAGCGUCCGAAAGGACAGGUAGGUCGCACCACAUGAGGAUCACCCAUGUUCCUU [ArgAS 10 #OpenEnded],323
6,GGUUACUCUACGGCCGCCACUGAACAUGAGGAUCACCCAUGUAAUGUUCAGACGUCUUUAGACGACAGGACCGGGUAGUGUAACC [Tryptophan B 5],232
7,AAUUCCUAACAUGAGGAUCACCCAUGUGAAGGAGCGCCGAAUAAGGCAGGUAGGUCGCACAUGGAACAGCUGCGAAAGAGGAAAA [XArg-A 5 V1&2],12.5
8,UGUAACAUGAGGAUCACCCAUGUGAGUGAUACCAGACUAGUGUUAGUCCCUUGGCAGCACGCUGGACAAAUGUGUAGUCUAUGCG [Same State - Theophylline A (Freestyle 20)],62.6
9,GAAUAAAGUAGAACACAAGACUCCUGAGAAGGAGCGCAGUCAACUGCAGGUAGGUCGCUCAGGAACACAUGAGGAUCACCCAUGU [Disoonlate],32.3
10,AUCCAGAGCCGAAGGAGCGCUAGAAGAUGACAUGAGGAUCACCCAUGUGUGUGAUGUGGCUAGCAGGUAGGUCGCGGACUGGAUU [Exclusion - Arginine B (Freestyle 13)],33.5

# Same assay, conditions: Eterna round: R107; input ligand: tryptophan 2.4 mM
row,Sequence,apparent KD of MS2 coat protein [nM]
1,GGACUAACCAGAAGGAGCGACGCGCAGAAACUGCAAAAUCCUCCGCACGAGGAUCACCCGUGUCAGGUAGGUCGCUGGUUAGUCG,27.7
2,UGAUCCUACAGAGAUACCAGUGCCACUGAGUGACCAGACACAUGAGGAUCACCCAUGUAACACCCUUGGCAGCUCAACUAAAGGG [Same State Theophylline B GF17],21.4
3,UGGUACUAGGCGGCCGCCACUGGGUGAUACAUGAGGAUCACCCAUGUUUAAUGCCGAGAGGCAACCAGGACCGGGCCUAGUACAU,19.5
4,AGCGACAUGCAUGAUACCAGCUACAUGAGGAUCACCCAUGUACGUCAGUAAUGACUGUGUAGCCCUUGGCAGCAUAGAGCAUGUC [Exclusion - Theophylline B (Freestyle 16)],17.3
5,UAUAUAGAUGGACGUCAUAUAGAUGCAGAAGGAGCGUAGGAAACUACAGGUAGGUCGCUGAGGUACAUGAGGAUCACCCAUGUAG [SSArg A #19 Slice of Pi],20.9
6,CGCACAUGAGGAUCACCCAUGUGAGGGCAUCGAGGACCGGUACGGCCGCCACUCGCAGGACAUGAGGAUCACCCAUGUGCCGCCG [SSTA DOUBLE!!! :-D #5],24.4
7,UAGGCACGAGACAUGAGGAUCACCCAUGUUCGAGGACCGGUACGGCCGCCACUCGGUGGACUCAUGGUAAAGCCGGUGAGCCAAU [AK 1.2 SS Trypt (A)],51.6
8,UGACAUUGCUCAGAUACCAGACUUGAGGAACACCCAAGUGCCAACAAGUAUAUAAUAAAAGUCCCUUGGCAGCUGAGCAAUGUCU [TheoBX 19 #MS2Left #AlternativeMS2 #Theo2],45.3
9,GUCGGAGUCGGAAGGAGCGACAUGAGGAUCACCCAUGUCUCCCGUUAUGGGAGUUCCUUAGGUCAGGUAGGUCGCCGACUCCGAC [#1 Exclusion - Arginine B Attempt #24 (Inspired by Omei)],240
10,UGUAUGUGAUCUGAUACCAGUCCAACUGGUAAAACAAGAGGAUCACCCUUGUAAAAUUGGGACCCUUGGCAGCAGAUCGCAUACU,733
11,UGUGCAGGAUGCGUAAAGGGUCUUGCGCAUCGAGGACCGGUACGGCCGCCACUCGGCUGUACAUGAGGAUCACCCAUGUCAGGGU [#1 Same State - Tryptophan A Attempt #19 (HarryS)],533
12,UCACAUGAGGAUCACCCAUGUGUCAGAGAAGGAGCGGCCGCAAGGCCAGGUAGGUCGCUCGGGUAGCGUGAGGAUCACCCGUGUG [#1 Exclusion - Arginine A Attempt #11 (Inspired by cyborg)],45.1
13,GAGCUGAUGUAGGGCGGAUAUCCGUGAGAUACCAGUACAGAAAUGUACCCUUGGCAGCUCUUCCUUACAUGAGGAUCACCCAUGU [Ex Theophylline A 26],19.4
14,AGCCAUGGAAACAUGGCGGCGGCAUGAGCGCGAGGACCGGUACGGCCGCCACUCGGGCGACAUGAGGAUCACCCAUGUUCCUCAA [ETA NP+V+V2 #21],340
15,UGCCGAGACGUGGAUUACCCGUGUACCGAAGGAGCGCCCGAAAGGGCAGGUAGGUCGCGGAGGACAUGAGGAUCACCCAUGUCGA,83.7
16,ACGACAUGAGGAUCACCCAUGUGUACUGAAGGAGCGGCGGAAACGCCAGGUAGGUCGCAGUACACCUCAACCAGCGGUCCUAAGU [EAA NP+V+V2 #2],64.3
17,AGCACUGUGACGGCCGCCACUACAUAAGUUGGGUGGUCAGGUUCAUUACAUGAGGAUCACCCAUGUAGGACCGGGUCUCAGUGCA [Omei Trp Exc B A v9],10.3

row,Sequence,apparent KD of MS2 coat protein [nM]
1,GGCACAUAGUCGGCCGCCACUAGUAUAAGAUGGAAUAACAUGAGGAUCACCCAUGUAAAAGGGACUAGGACCGGGACUAUGUGCC [Rat],12.5
2,CAGUCAGUCAGUCAAUGAGUGAGCCAUGAAGGAGCGUGGGAAACCACAGGUAGGUCGCAUGGGAAACAUGAGGAUCACCCAUGUU [SSArg A #2],28.2
3,UAUCGAAACUGAAGGAGCGAGAUGACAAACAUGAGGAUCACCCAUGUUAUGGGUUGUUAAUCUCAGGUAGGUCGCAGUGGUAGCA [Same State Arginine B GF 17],156
4,AUGCUGACAAGGAGGUGUUCCUCAGCUGAUACCAGCCUGGAAACAGGCCCUUGGCAGCAGCACAUGAGGAUCACCCAUGUAAUAA [(T)'-(M)'-(T1)-(T2)-(M1)-(M2)_Design1(Mismatches)],33.4
5,AGCGGAACGGAAGGGUCCCAAAAUUGUGAUACCAGCCUUGAAUCCGGCCCUUGGCAGCACAUGAGGAUCACCCAUGUACUGCGGU [Celate],14.4
6,CUAUAGAUAAGAAGGAGCGACAUGAGGAUCACCCAUGUCUACCACGUCGAAAGACGCUCAUGUCAGGUAGGUCGCUUAUUUAUAG [Astros-Eli-mod7],84.1
7,UGACAUUGCUCAGAUACCAGACAUGAGGAUCACCCAUGUACCAAGGUAACCGAAAGGCAUGUCCCUUGGCAGCUGAGCAAUGUCU [TheoBX 2 #MS2Left #Theo2 #StaticStem],11.9
8,GGGCCCGGGCGCGAGCCCGGGCCCAUUGAUACCAGUGAAUGUGUACGCCCUUGGCAGCGAAUCCUAACAUGAGGAUCACCCAUGU [5.D],35.2
9,AGUCUUGAACGAAGGAGCGACGUACAUGAGGAUCACCCAUGUGUAGGAGCGAAAGCUCCACGUCAGGUAGGUCGCGUUCGAGACA [Omei Arginine B SS A v4],13.9
10,UGGUACAUGAGGAUCACCCAUGUGCCGGAUACCAGAGAGCCGGCUCUCCCUUGGCAGCUGGCGCGACAUGAGGAUCACCCAUGUG [Exclusion Theophylline A GF18],24.6
11,UUAGAUAUGACGGAUACCAGCGUGUUGUAGAACAUGAGGAUCACCCAUGUAGUGAUCAUGCGCCCUUGGCAGCUGGUAUGUUUGG [7.U],566
12,UGAGUUAGACAAAAGUCUAGCUCUGGUGAAGGAGCGUCCGAAAGGACAGGUAGGUCGCACCACAUGAGGAUCACCCAUGUUCCUU [ArgAS 10 #OpenEnded],216
13,AAUUCCUAACAUGAGGAUCACCCAUGUGAAGGAGCGCCGAAUAAGGCAGGUAGGUCGCACAUGGAACAGCUGCGAAAGAGGAAAA [XArg-A 5 V1&2],12.7
14,UGUAACAUGAGGAUCACCCAUGUGAGUGAUACCAGACUAGUGUUAGUCCCUUGGCAGCACGCUGGACAAAUGUGUAGUCUAUGCG [Same State - Theophylline A (Freestyle 20)],70.5
15,GAAUAAAGUAGAACACAAGACUCCUGAGAAGGAGCGCAGUCAACUGCAGGUAGGUCGCUCAGGAACACAUGAGGAUCACCCAUGU [Disoonlate],23.9
16,AUCCAGAGCCGAAGGAGCGCUAGAAGAUGACAUGAGGAUCACCCAUGUGUGUGAUGUGGCUAGCAGGUAGGUCGCGGACUGGAUU [Exclusion - Arginine B (Freestyle 13)],18.7
